Laboratory results taken from patent US20240376151A1, “STAPLED PEPTIDES AND METHODS THEREOF” (FOG PHARMACEUTICALS, INC., priority 2022, published 2024).

Molecular target: T1, RNF31 UBA domain (Homo sapiens, UniProt Q96EP0)
T1 construct: RNF31 UBA domain protein (residues 480-639) with N-terminal Thioredoxin-TEV-6×his-yBBr-3C tags; Thioredoxin (N, cleaved yes); made in house; host or cells: E. coli BL21 (DE3) pLysS
T1 sequence (Q96EP0 480-639): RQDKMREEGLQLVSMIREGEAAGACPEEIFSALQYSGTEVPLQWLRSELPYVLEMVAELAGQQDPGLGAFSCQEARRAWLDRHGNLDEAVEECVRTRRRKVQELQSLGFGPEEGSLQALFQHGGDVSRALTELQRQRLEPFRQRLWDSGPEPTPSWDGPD
Assay: Phage Library Screening with NGS, RNF31 UBA domain
Assay type: binding
Conditions: for phage screen NGS read-out at Target Concentration 10 / phage screen NGS read-out at Target Concentration 30 / phage screen NGS read-out at Target Concentration 100 / phage screen NGS read-out at Target Concentration 300: no competitor; for Phage library screen NGS readout, Target Concentration 10 / Phage library screen NGS readout, Target Concentration 30 / Phage library screen NGS readout, Target Concentration 100 / Phage library screen NGS readout, Target Concentration 300 / Phage library screen NGS readout, Target Concentration 1000: RNF31 UBA domain cluster C46; for Phage library screen NGS readout, BLANK: cluster C46

[1] = target concentration 1000, first column
[2] = target concentration 1000, second column

Sequence | phage screen NGS read-out at Target Concentration 10 | phage screen NGS read-out at Target Concentration 30 | phage screen NGS read-out at Target Concentration 100 | phage screen NGS read-out at Target Concentration 300 | Phage library screen NGS readout, Target Concentration 10 | Phage library screen NGS readout, Target Concentration 30 | Phage library screen NGS readout, Target Concentration 100 | Phage library screen NGS readout, Target Concentration 300 | Phage library screen NGS readout, Target Concentration 1000 [1] | Phage library screen NGS readout, Target Concentration 1000 [2] | Phage library screen NGS readout, BLANK (column 1 of 5) | Phage library screen NGS readout, BLANK (column 2 of 5) | Phage library screen NGS readout, BLANK (column 3 of 5) | Phage library screen NGS readout, BLANK (column 4 of 5) | Phage library screen NGS readout, BLANK (column 5 of 5)
DPAFSRCVYAAFTCQTF | 0 | 0 | 1 | 10 |  |  |  |  |  |  |  |  |  |  | 
DPASIHCAAAALWCDIL | 0 | 0 | 1 | 8 |  |  |  |  |  |  |  |  |  |  | 
DPATLVCTMAANNCIYR | 0 | 0 | 0 | 1 |  |  |  |  |  |  |  |  |  |  | 
DPADWTCVLAAHNCLYT | 0 | 0 | 0 | 1 |  |  |  |  |  |  |  |  |  |  | 
DPAQQHCSAAAAWCVVL | 0 | 0 | 1 | 10 |  |  |  |  |  |  |  |  |  |  | 
DPARWVCELAAQNCLYR | 0 | 1 | 1 | 1 |  |  |  |  |  |  |  |  |  |  | 
DPAREHCDSAAAWCWVL | 0 | 0 | 1 | 4 |  |  |  |  |  |  |  |  |  |  | 
DPAALACLSAAVYCEMY |  |  |  |  | 6 | 49 | 132 | 200 | 199 | 246 | 0 | 1 | 2 | 0 | 1
DPAVQSCLSAAVYCAFR |  |  |  |  | 2 | 9 | 68 | 106 | 117 | 118 | 0 | 1 | 2 | 0 | 1
DPASASCLSAAIYCSMF |  |  |  |  | 5 | 17 | 122 | 255 | 247 | 297 | 0 | 0 | 1 | 0 | 0
DPADYICYLAANNCLYH | 3 | 1 | 4 | 19 |  |  |  |  |  |  |  |  |  |  | 
DPAAYLCDMAAHNCLYL | 1 | 0 | 0 | 0 |  |  |  |  |  |  |  |  |  |  | 
DPAHEHCTAAASWCYIL | 0 | 0 | 3 | 8 |  |  |  |  |  |  |  |  |  |  | 
DPAQRQCLSAAVFCATL |  |  |  |  | 3 | 24 | 137 |  | 292 | 319 | 0 | 1 | 1 | 0 | 1

Further lines, results first:

phage screen NGS read-out at Target Concentration 10 | phage screen NGS read-out at Target Concentration 30 | phage screen NGS read-out at Target Concentration 100 | phage screen NGS read-out at Target Concentration 300 | Phage library screen NGS readout, Target Concentration 10 | Phage library screen NGS readout, Target Concentration 30 | Phage library screen NGS readout, Target Concentration 100 | Phage library screen NGS readout, Target Concentration 300 | Phage library screen NGS readout, Target Concentration 1000 [1] | Phage library screen NGS readout, Target Concentration 1000 [2] | Phage library screen NGS readout, BLANK (column 1 of 5) | Phage library screen NGS readout, BLANK (column 2 of 5) | Phage library screen NGS readout, BLANK (column 3 of 5) | Phage library screen NGS readout, BLANK (column 4 of 5) | Phage library screen NGS readout, BLANK (column 5 of 5) | Sequence
0 | 0 | 0 | 2 |  |  |  |  |  |  |  |  |  |  |  | DPALTHCTAAAYWCYVM
3 | 1 | 1 | 1 |  |  |  |  |  |  |  |  |  |  |  | DPAHILCEMAARNCLYN
0 | 0 | 7 | 29 |  |  |  |  |  |  |  |  |  |  |  | DPAFSTCVYAAIICNDT
0 | 1 | 1 | 6 |  |  |  |  |  |  |  |  |  |  |  | DPAMYICEMAAANCLYQ
 |  |  |  | 0 | 0 | 3 | 4 | 5 | 7 | 0 | 0 | 0 | 0 | 0 | DPAHVRCTSAALWCNIF
0 | 0 | 0 | 0 |  |  |  |  |  |  |  |  |  |  |  | DPASIICMLAADNCLYE
0 | 0 | 2 | 30 |  |  |  |  |  |  |  |  |  |  |  | DPADLICQLAAANCIYL
0 | 0 | 0 | 8 |  |  |  |  |  |  |  |  |  |  |  | DPARYHCEAAAAWCELL
0 | 0 | 0 | 4 |  |  |  |  |  |  |  |  |  |  |  | DPAFSMCVYAAVTCVST
0 | 1 | 1 | 6 |  |  |  |  |  |  |  |  |  |  |  | DPAHVHCQAAAQWCVLL
 | 210 | 40 | 88 |  |  |  |  |  |  |  |  |  |  |  | DPAQRDCFSAAVYCSFL
 |  |  |  | 0 | 0 | 11 | 10 | 10 | 17 | 0 | 0 | 0 | 0 | 0 | DPAQMSCFSAAVYCRLF
0 | 0 | 0 | 2 |  |  |  |  |  |  |  |  |  |  |  | DPAFYECVYAAVTCTQF
1 | 0 | 0 | 0 |  |  |  |  |  |  |  |  |  |  |  | DPADLLCHMAAQNCLYR
2 | 0 | 11 | 55 |  |  |  |  |  |  |  |  |  |  |  | DPAFSQCVYAAVVCEVQ
 |  |  |  | 2 | 19 | 49 | 95 | 104 | 111 | 0 | 0 | 1 | 0 | 0 | DPAQLNCLSAAMYCALY
0 | 0 | 4 | 10 |  |  |  |  |  |  |  |  |  |  |  | DPAEWICRMAAMNCLYQ (Ac-DPAEWICRMAAMNCLYQ-NH2; not fully specified (bridges); cysteine pairing not given here)
0 | 0 | 0 | 1 |  |  |  |  |  |  |  |  |  |  |  | DPAFSLCVYAAVECDHA
0 | 0 | 0 | 2 |  |  |  |  |  |  |  |  |  |  |  | DPAQVHCRSAAAWCILM
0 | 0 | 2 | 4 |  |  |  |  |  |  |  |  |  |  |  | DPALSTCVYAAVMCQDV
